Reference: the supplement of paper PMC10266784

B1: library; numbered along this chain (parent)
chain: MAAAAAAAAEQQSSNGPVKKSMREKAVERRSVNKEHNSNFKAGYIPIDEDRLHKTGLRGRKGNLAICVIILLFILAVINLIITLVIWAVIRIGPNGCDSMEFHESGLLRFKQVSDMGVIHPLYKSTVGGRRNENLVITGNNQPIVFQQGTTKLSVENNKTSITSDIGMQFFDPRTQNILFSTDYETHEFHLPSGVKSLNVQKASTERITSNATSDLNIKVDGRAIVRGNEGVFIMGKTIEFHMGGNMELKAENSIILNGSVMVSTTRLPSSSSGDQLGSGDWVRYKLCMCADGTLFKVQVTSQNMGCQISDNPCGNTH

Variants of: B1
Assay: SGCB cell-surface expression functional score (HA stain, bin4 vs bin1, normalised to synonymous) (log10 ratio); higher = more cell-surface SGCB (functional)
Method in brief: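 HEK293 cells stably expressing alpha-, gamma- and delta-sarcoglycan received codon-saturation libraries of HA-tagged, YFP-fused human beta-sarcoglycan by lentiviral transduction at MOI <0.1, performed in duplicate. Cells positive for YFP were sorted after 72 hours and cultured for 5–7 days, then stained on ice with Alexa Fluor 647 anti-HA and fixed. Fixed cells were sorted into four 5% intensity bins and amplicon-sequenced, and the log ratio of highest-bin to lowest-bin variant frequency, as a median over codons and transductions, gives the functional score. Per section, synonymous variants were scaled to mean 0, SD 0.5.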

SGCB cell-surface expression functional score (log10) of substitutions, site by site:
K124: G 0.08; C 0.21; P 0.61; S 0.11; D -0.66; A -0.41; Q 0.27; R 0.3; F -0.08; L 0.07; M -0.6; N 0.4; E -0.5; I 0.1; H -0.35
K111: M -0.31; C 0.01; G -1.08; T -0.37; L -0.35; F -0.85; E -0.76; D -0.84; N -0.45; H -0.03; R -0.25; S -1.07; Y -0.7; I -0.61; V -0.57; Q -1; A -1.04; W 0.03; P -1.47
L122: E 0.35; M 0.05; C 0.06; S 0.31; W 0.1; Q 0.48; V -0.14; Y 0.31; T 0.13; R 0.49; G 0.45; H 0.55; F -0.12; A -0.03; D 0.28; N -0.12; P -1.07; I 0.65; K -0.12
D115: N -0.27; C -1.36; T -1.39; L -1.17; A -1.73; H -0.53; E -0.54; Q -0.98; I -0.89; S -1.55; G -1.39; V -0.75; F -1.29; Y -0.03; K -0.97; R -1.16; P -1.39; M -1.51; W -1.77
V118: D -0.11; M -0.05; Y -0.32; R -0.19; E -0.21; K 0.64; G -0.31; W 0.32; H -0.23; Q -0.24; I 0.32; N -0.97; A -0.02; S 0.19; P -0.73; T 0.29; C 0.74; F -0.06; L -0.05
L108: T 0; Y -1.74; A -0.07; D -1.53; N -2.59; M 0.07; W -0.215; Q -1.27; P -1.13; G -0.9; H -0.95; K -1.85; R -1.09; F -1.87; I 0.03; S -0.5; V -0.08; E -1.58; C 0.01
M116: A -1.24; T -0.8; L 0.08; H -1.7; R -1.55; F 0.29; W -1.47; E -1.47; P -1.45; V -1.02; Y -1.63; G -1.48; D -0.59; C -1.02; S -1.38; K -1.21; N -1.13; Q -1.26; I -1.03
I119: E -1.16; H -1.49; R -0.88; W -1.04; V -0.21; L -0.19; F -1.3; K -1.36; G -0.96; P -0.94; Y -1.14; A -0.49; T -0.97; C -0.49; D -0.97; N -1.15; M 0.58; S -1.47; Q -1.26
Y123: G -0.11; H -0.35; F 0.2; I -0.3; V -0.18; P 0.1; L 0.02; W 0.33; M -0.24; T -0.12; D -0.53; A 0.29; Q 0.06; R -0.37; C 0.25; N 0.64; E 0.65; K -0.02; S 0.68
G117: H -0.9; M -0.46; A -0.7; S -0.38; C -0.28; D -0.32; L -1.42; K -1.66; Y -1.35; I -1.22; V -1.36; T -0.96; N 0.02; F -1.46; Q -1.06; P -1.21; R -0.86; W -1.14; E -0.94
F110: N -0.99; Q -1.06; P -1.35; S -1.18; R -1.05; V -0.47; E -1.42; M -0.98; T -1.1; A -1.33; C -1.22; G -1.18; I -0.31; L -0.53; W -1.08; K -0.57; Y -0.99; H -0.19; D -1.65
H120: Q -0.03; E -0.09; R 0.35; F 0.08; A -0.12; T 0.44; N 0.06; S 0.28; C 0.35; V -0.04; I 0.16; L 0.39; W 0.14; M -0.63; Y 0.03; P -1.27; D -0.59; G -1.08; K -0.13
V113: F -0.38; I 0.04; H -0.84; C -0.61; A -0.4; G -0.67; P 0.22; S -0.27; W -1.16; K 0.32; E -0.5; D -0.21; L -0.01; R -0.07; Q -0.79; T -0.1; N -0.49; Y -0.42; M -0.22
R109: Q -0.31; N -1.22; S -0.09; M -0.41; D -0.93; A -0.33; Y -0.17; T 0.26; V 0.1; E -0.02; C -0.5; L -0.1; H -0.61; K -0.59; G -0.81; F -0.2; W 0.09; P -1.41; I -0.04
L107: F -0.29; Y -0.27; T -0.34; M 0.24; K -0.53; G -0.26; Q 0; N -0.13; V -0.21; W -0.39; P -0.47; I 0.27; S -0.46; R -0.36; H -0.67
Q112: T -0.79; H 0.02; N -1.32; S -0.17; I 0.03; G -0.59; L -0.73; R 0.07; P -1.14; Y -0.7; F -0.97; C -0.81; V -0.18; K -0.1; E -0.38; D -0.16; W -0.83; M -0.17; A -0.21
S114: V -0.22; K -1.22; N -0.49; R -1.39; C 0.01; L -1.15; Q -1.66; A 0.55; Y -1.47; I 0.12; M -0.25; T -0.37; W -0.55; F -0.89; H -1.62; P -0.77; G -0.7; D -1.53; E -0.49
P121: I -0.16; Q -0.72; L 0.04; T -0.36; V 0.5; S 0.12; D -0.76; W -0.71; A -0.17; G -0.47; E -1.17; Y -0.96; K -0.78; C 0.36; M -0.6; H -0.14; N 0.38; F 0.33; R -1
